Numbering of substitutions follows the chain as printed. Each block holds one binder with its values, some of them ahead of it.
Target: T1, hGUCY2C ECD-His (human, UniProt P25092 24-430)
T1 construct: also called human GUCY2C protein
Assay: SPR Biacore, antibody captured
Description: To test the affinity of the GUCY2C monoclonal antibodies of the present disclosure for GUCY2C, in this test example, the instruments Biacore 8K and Biacore T200 were used to detect the ability of the antibodies to bind to hGUCY2C-ECD-His (SEQ ID NO: 3). The specific method is as follows: The antibody was affinity-captured using a Protein A biosensor chip conjugated with an anti-human antibody, then a solution containing GUCY2C Protein flowed on the surface of the chip, and reaction signals were detected in real time with an instrument to obtain association and dissociation curves. After dissociation was completed for each cycle, the biosensor chip was washed with 10 mM glycine-hydrochloric acid (pH 1.5) for regeneration. Data fitting was performed using a 1:1 model.

B3: 81 L3H2 (antibody, human IgG1, kappa, V domains shown)
VH: EVQLVQSGAEVKKPGASVKVSCKASGYTFTDHNMNWVKQAPGQRLEWMGVMNPKFGTINYNQKFKDKATITRDTSASTAYMELSSLRSEDTAVYYCARDDYPNYFDYWGQGTTVTVSS
VL: DIQLTQSPSFLSASPGDRVTITCSASSSVNYMYWYQQKPGSSPKSWIYRTSNLASGVPSRFSGSGSGTEYTLTISSLQPEDFATYYCQQYHDYPPTFGGGTKVEIKR
notes: h81 H2 + h81 L3
Kd: 0.41 nM
koff: 0.000103 s⁻¹
kon: 251000 M⁻¹ s⁻¹

B4: 81 L2H2 (antibody, human IgG1, kappa, V domains shown)
VH: B3 VH
VL: EIVLTQSPDFQSVTPGEKVTITCSASSSVNYMYWYQQKPDQSPKSWIYRTSNLASGVPSRFSGSGSGTDFTLTISSLEAEDAATYYCQQYHDYPPTFGGGTKVEIKR
notes: h81 H2 + h81 L2
Kd: 0.46 nM
koff: 0.000127 s⁻¹
kon: 274000 M⁻¹ s⁻¹

B5: 81 L4H2 (antibody, human IgG1, kappa, V domains shown)
VH: B3 VH
VL: B3 VL with L53D
notes: h81 H2 + h81 L4
Kd: 0.98 nM
koff: 0.000207 s⁻¹
kon: 212000 M⁻¹ s⁻¹

B7: P3-C7 L2H1 (antibody, human IgG1, kappa, V domains shown)
VH: EVQLVQSGAEVKKPGASVKVSCKASGYTFTDHYIHWVRQAPGQGLEWMGVINPYNDGATYNQKFKGRVTMTVDKSTSTVYMELSSLRSEDTAVYYCARPPRAYGNYAGYWGQGTTVTVSS
VL: DVVMTQTPLSLPVTPGEPASISCRSSQSLVHSNGNTYLHWYLQKPGQSPQLLIYKVSNRFSGVPDRFSGSGSRTDFTLKISRVEAEDVGVYYCSQSTHVPYTFGGGTKVEIKR
notes: hP3-C7 H1 + L2
Kd: 5.35 nM
koff: 0.000166 s⁻¹
kon: 31000 M⁻¹ s⁻¹

B8: P3-C7 L3H1 (antibody, human IgG1, kappa, V domains shown)
VH: B7 VH
VL: B7 VL with N33Q
notes: hP3-C7 H1 + L3
Kd: 47.5 nM
koff: 0.00135 s⁻¹
kon: 28400 M⁻¹ s⁻¹

B10: P3-C7 L1H1 (antibody, human IgG1, kappa, V domains shown)
VH: B7 VH
VL: B7 VL with V2I, R73G
notes: hP3-C7 H1 + L1
Kd: 6.55 nM
koff: 0.000156 s⁻¹
kon: 23700 M⁻¹ s⁻¹

B11: P3-C7 L4H1 (antibody, human IgG1, kappa, V domains shown)
VH: B7 VH
VL: B7 VL with N33S
notes: hP3-C7 H1 + L4
Kd: 73.4 nM
koff: 0.00209 s⁻¹
kon: 28500 M⁻¹ s⁻¹

Results, then the binder that gave them:

Kd: 0.27 nM
koff: 5.9e-05 s⁻¹
kon: 216000 M⁻¹ s⁻¹
B1: M81 CHI (antibody, human IgG1, kappa, V domains shown)
VH: EFQLQQSGPELVKPGASVKISCKASGYSFTDHNMNWVKQSNGKSLEWIGVMNPKFGTINYNQKFKDKATLTVDQSSSTAYMQLNSLTSEDSAVYYCVRDDYPNYFDYWGQGTTLTVSS
VL: QIVLTQSPAIMSASPGEKVTISCSASSSVNYMYWYQQKPGSSPKSWIYRTSNLASGVSARFSGSGSGTSYSLTISSMEAEDAATYYCQQYHDYPPTFGGGTKLEIKR
notes: chimeric, murine variable regions on human IgG1/kappa; also called M81CH1

Kd: 0.46 nM
koff: 9.22e-05 s⁻¹
kon: 203000 M⁻¹ s⁻¹
B2: M146 CHI (antibody, human IgG1, kappa, V domains shown)
VH: EFQLQQSGPELVKPGASVKISCKASGYSFTDYNMNWVKQSNGKSLEWIGLINPKYGTTNYNQKFKGKATLTVDQSSSTAYMQLNSLTSEDSAVYYCAIDDYPAWFAYWGQGTLVTVSA
VL: B1 VL with V29L, S58P, D92S, G99A, I105L
notes: chimeric

Kd: 0.47 nM
koff: 0.000114 s⁻¹
kon: 241000 M⁻¹ s⁻¹
B6: 81 L6H2 (antibody, human IgG1, kappa, V domains shown)
VH: B3 VH
VL: B3 VL with S51Q
notes: h81 H2 + h81 L6

Kd: 26.7 nM
koff: 0.000719 s⁻¹
kon: 26900 M⁻¹ s⁻¹
B9: P3-C7 L5H1 (antibody, human IgG1, kappa, V domains shown)
VH: B7 VH
VL: B7 VL with N33T
notes: hP3-C7 H1 + L5

Source: US20260028421A1 (JIANGSU HENGRUI PHARMACEUTICALS, published 2026)
